Laboratory results: patent US20190367619A1 (ARGENX, published 2019)

Tests used:
[1] = target: T1, human galectin-10-His (recombinant human galectin-10 with TEV-cleavable N-terminal His-tag) (human); assay: ELISA binding (summary table), mouse IgG1
T1 construct: SEC-MALLS: dimer in solution; also called Gal10-His; humanGal10-His
T1 chain: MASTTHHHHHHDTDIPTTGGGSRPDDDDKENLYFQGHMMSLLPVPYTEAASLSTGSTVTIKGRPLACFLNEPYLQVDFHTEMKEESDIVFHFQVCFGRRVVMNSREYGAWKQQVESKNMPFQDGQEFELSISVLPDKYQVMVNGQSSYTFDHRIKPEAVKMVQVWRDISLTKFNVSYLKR

[2] = target: T1, human galectin-10-His (recombinant …); assay: BLI tandem on galectin-10-His; competitor: saturating 6F06 mIgG1 (10 ug/mL)
Method in brief: (§1)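 Read-out is the BLI wavelength shift (nm) from the competitor antibody, measured after the captured antigen has already been saturated by another antibody. Absence of shift means both antibodies share the binding site.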

[3] = target: T1, human galectin-10-His (recombinant …); assay: BLI tandem on galectin-10-His; competitor: saturating 6B06 mIgG1 (10 ug/mL)
Method in brief: as §1

[4] = target: T2, TEV-cleaved wild-type recombinant human galectin-10 (soluble, in Fab complexes, or as recombinant galectin-10 … (human, UniProt Q05315 1-142)); assay: cell-based or functional assay
T2 sequence: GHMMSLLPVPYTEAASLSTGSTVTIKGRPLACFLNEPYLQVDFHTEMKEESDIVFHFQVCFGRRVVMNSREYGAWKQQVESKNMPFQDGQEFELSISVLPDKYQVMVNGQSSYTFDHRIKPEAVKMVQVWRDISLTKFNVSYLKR

[5] = target: T1, human galectin-10-His (recombinant …); assay: BLI tandem on galectin-10-His; competitor: saturating 6A05 mIgG1 (10 ug/mL)
Method in brief: as §1

[6] = target: T1, human galectin-10-His (recombinant …); assay: BLI tandem on galectin-10-His; competitor: saturating 6E10 mIgG1 (10 ug/mL)
Method in brief: as §1

[7] = target: T1, human galectin-10-His (recombinant …); assay: BLI tandem on galectin-10-His; competitor: saturating 2F09 mIgG1 (10 ug/mL)
Method in brief: as §1

[8] = target: T1, human galectin-10-His (recombinant …); assay: BLI tandem on galectin-10-His; competitor: saturating 4E08 mIgG1 (10 ug/mL)
Method in brief: as §1

[9] = target: T3, cynomolgus galectin-10-His, WGS isoform (cynomolgus); assay: ELISA, mouse IgG1 on coated cynoGal10-His_WGS (0.5 ug/mL)
T3 construct: not shown: His tag
T3 chain: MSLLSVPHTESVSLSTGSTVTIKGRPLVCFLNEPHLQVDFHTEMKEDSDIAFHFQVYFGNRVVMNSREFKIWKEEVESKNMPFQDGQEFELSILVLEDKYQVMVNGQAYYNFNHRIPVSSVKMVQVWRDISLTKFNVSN
Experimental: In a similar setup to that used during the characterization of the scFv-human Fc molecules, the relative binding properties of the 7 mouse IgG1 antibodies were analyzed by ELISA. A Maxisorp plate was coated overnight with 0.5 μg/mL of human or cynomolgus WGS or YRT isoform of galectin-10-His. Then a serial dilution of each clone (from 100 nM, dilution 1/4, 12 points of dilutions) was incubated on coated galectin-10. After several washing steps, detection of the bound mouse IgG1 was carried out with an anti-mouse Fc-HRP antibody (DAMPO, Jackson ImmunoResearch, Catalog 715-035-150). Absorbance was measured at 450 nm (reference at 620 nm) with Tecan instrument. The raw data (OD values) were plotted on GraphPad Prism 7.01. The EC50 values for each antibody, calculated with a non-linear regression (log(agonist) vs. response Variable slope (four parameters)), are shown in the table below. Antibody 1D11 from the previous panel was included for comparison.

[10] = target: T1, human galectin-10-His (recombinant …); assay: ELISA, mouse IgG1 on coated galectin-10-His (0.2 ug/mL)
Method in brief: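 Serial dilutions of each antibody (from 100 nM, 1/4 steps, 12 points) were incubated on plates coated overnight with the antigen. Bound IgG1 detected with anti-mouse Fc-HRP, absorbance at 450 nm (reference 620 nm). EC50 from four-parameter variable-slope non-linear regression of OD values.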

[11] = target: T1, human galectin-10-His (recombinant …); assay: BLI tandem on galectin-10-His; competitor: saturating 2C07 mIgG1 (10 ug/mL)
Method in brief: as §1

[12] = target: T1, human galectin-10-His (recombinant …); assay: BLI tandem on galectin-10-His; competitor: saturating 1C09 mIgG1 (10 ug/mL)
Method in brief: as §1

EC50 [1]: 0.1 nM | binding signal (nm) [2]: 0.03 nm | binding signal (nm) [3]: 0 nm | 100% Inhibition of CLC formation (Conc uM) [4]: 0.34 µM | 100% Solubilization of CLC (Conc uM) [4]: 7.86 µM | binding signal (nm) [5]: 0.06 nm | binding signal (nm) [6]: -0.01 nm | binding signal (nm) [7]: 0.02 nm | binding signal (nm) [8]: 0 nm | binding result [9]: no binding | Bmax [10]: 1.5 OD | EC50 [10]: 0.1 nM | binding signal (nm) [11]: 0.02 nm | binding signal (nm) [12]: 0.01 nm
B1: 1D11 mouse IgG1 (antibody, V domains shown)
VH: QVQLVESGGGLVQPGGSLRLSCAASGFTFDDYAMSWVRQAPGKGLEWVSGISWNGGSTYYAESMKGRFTISRDNAKNTLYLQMNSLKSEDTAVYYCAKDRNLGYRLGYPYDYWGQGTQVTVSS
VL: QSVLTQPPSVSGSPGETVTISCAGTSSDVGYGNYVSWYQQLPGMAPRLLIYEVNKRASGITDRFSGSKSGNTASLTISGLQSEDEGDYYCASYRSSNNAVFGGGTHLTVL
notes: VH on mouse IgG1 heavy chain constant domains (CH1-CH2-CH3), VL on mouse lambda light chain constant domain; also called 1D011; 1D11 mIgG1
